Laboratory results reported in patent US20240117062A1 (Sanofi, published 2024).
Residue numbers refer to the chain shown, from its start.

B1: CA10_parental (antibody, V domains shown)
VH: QVQLVESGGGVVQPGRSLRLSCAASGFTFSNFGMHWVRQAPGRGLEWVAVIWSDETNRYYADSVKGRFTVSRDNVKSTVYLQMNSLISEDTAVYYCARDQQYCSSDSCFTWFDPWGQGTLVTVSS
VL: QVVVTQESALTTSPGETVTLTCRSSTGTVTPSNYANWVQEKPDHFFTGLIGDNNSRPPGVPARFSASLIGDKAALTITGAQTEDEAMYFCALWFGNQWVFGGGTKVTVL
notes: tested as a mAb purified on mAbSelect SuRe; also called CA10_V2_parental; CA10 WT
B2: CA10 Variant 5 (CA10_PE_V5) (antibody, V domains shown)
VH: B1 VH
VL: QTVVTQEPSLTVSPGGTVTLTCASSTGAVTSGYYANWVQQKPGQAPRALIGDNNIKPSWTPARFSGSLLGGKAALTLSGVQPEDEAEYYCALYYGGQWVFGGGTKLTVL
B3: CA10 Variant 2 (antibody, V domains shown)
VH: B1 VH
VL: QTVVTQEPSLTVSPGGTVTLTCASSTGTVTPSNYANWVQQKPGQAPRGLIGDNNSRPPGTPARFSASLLGGKAALTLSGVQPEDEAEYYCALWFGNQWVFGGGTKLTVL
B4: CA10 Variant 6 (antibody, V domains shown)
VH: B1 VH
VL: B3 VL with A45F
B5: CA10 Variant 3 (antibody, V domains shown)
VH: B1 VH
VL: B2 VL with S31P, G32S, Y33N, A48G, S58P, Y93W
B6: CA10 Variant 1 (antibody, V domains shown)
VH: B1 VH
VL: B3 VL with A23R, G43D, Q44H, A45F, P46F, R47T, T60V, L69I, G71D
B7: CA10 Variant 4 (antibody, V domains shown)
VH: B1 VH
VL: B2 VL with S31P, A48G, I55N, S58P

Legend:
Human BCMA-Avi-His = target: T1, Human BCMA-Avi-His (human, UniProt Q02223 2-54); assay: SPR (Biacore T100), antibody captured on Protein A chip, antigen as analyte
T1 construct: SPR analyte; also called human BCMA Avi-His protein
T1 sequence (looked up): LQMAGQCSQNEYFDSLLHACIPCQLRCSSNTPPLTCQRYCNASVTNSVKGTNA
Method: (§1) 1×HBS-EP+ was prepared in MilliQ water, filtered, and degassed. A BIACORE™ T100 was primed with 1×HBS-EP+. The immobilized chip […] BIACORE™ control software was used.
(§2) The antibodies were diluted to 20 μg/mL in HBS-EP+. Seven 1:1 serial dilutions of the antigens were prepared (80 nM final concentration), and 1×HBS-EP+ was used as a 0 nm control. 1×HBS-EP+ was used for start-up injections and HCl (12 mM) was used for regeneration. The samples were run, and the data were analyzed using the BIACORE™ T100 software.

Cyno BCMA-Avi-His = target: T2, Cyno BCMA-Avi-His (cynomolgus, UniProt A0A2K5UD97 2-53); assay: as above
T2 construct: SPR analyte; also called cynomolgus BCMA Avi-His protein
Method: as §1, §2

[1] = target: T3, BCMA protein on MM1R cells (UniProt Q02223 1-184, limits assumed); assay: flow cytometry on MM1R cells
T3 construct: whole, on cells; also called BCMA proteins on MM1R cell membrane surfaces
T3 sequence (looked up): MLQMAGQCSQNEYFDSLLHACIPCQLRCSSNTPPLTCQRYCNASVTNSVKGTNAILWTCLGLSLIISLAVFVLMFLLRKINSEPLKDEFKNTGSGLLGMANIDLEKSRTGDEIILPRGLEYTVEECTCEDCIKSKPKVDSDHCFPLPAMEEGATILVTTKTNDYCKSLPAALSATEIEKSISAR
Method: HEK 293 cells or MM1R cells (0.5×10⁶) were aliquoted into separate FACS tubes and were labelled as unstained, test sample or positive control. Hybridoma sup (20 μL) or purified CA10 or positive control (1 μg/mL, 5 μL) were added to the cells and incubated on ice for 30 minutes. […] The supernatant was poured off and the cells were gently vortexed to mix. 50 μL of 1:500 dilution of FITC conjugated goat anti-human (or mouse) H+L specific secondary antibody was added to the cells, and the cells were incubated on ice or at 4° C. for 30 minutes in the dark. […] The supernatant was discarded, and the cells were resuspended in 150-200 μL of FACS buffer. The cells were acquired on a BD FACS Canto and data analyzed using Flojo V10. Software.

Cyno BCMA DTA-His = target: T4, Cyno BCMA DTA-His (cynomolgus); assay: SPR (Biacore T100), antibody captured on Protein A chip, antigen as analyte
T4 construct: SPR analyte, Mw 28,203 Da; also called Cyno DTA His; cynomolgus BCMA DTA-His protein
Method: as §1, §2

[2] = target: T5, cynomolgus BCMA protein (ELISA antigen) (cynomolgus, UniProt A0A2K5UD97 1-53); assay: ELISA on coated BCMA antigen
T5 construct: also called Cyno BCMA; BCMA antigen
T5 sequence (A0A2K5UD97 entry or part of it): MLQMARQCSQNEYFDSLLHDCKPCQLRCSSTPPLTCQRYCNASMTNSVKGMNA
Method: A solution of BCMA antigen (2 μg/mL or 1 mg/mL biotinylated BCMA antigen when Streptavidin coated plate is used) was prepared in phosphate buffered saline (PBS). The antigen solution was added to 96-well plates (50 μL per well) and was incubated at 4° C. overnight. The plates were blocked with 250 μL per well of PBSA (PBS containing 1% BSA) for 2 hr at 37° C., then washed with 200 μL per well of phosphate buffered saline (PBS) three times. Hybridoma sup (50 μL) or 1 mg/mL of purified test or control (positive and negative) antibody (50 μL) were added per well in the 96-well plate and were incubated for 1 hour at room temperature. The plates were washed with 200 μl per well of PBS, three times, then horse radish peroxidase (HRP) conjugated secondary antibody diluted at 1:5,000 in PBSA (50 μl per well) was added and incubated for 1 hour at room temperature. Then, the plates were washed with 200 μl per well of PBS, three times. The tetramethylbenzidine dihydrochloride (TMB) substrate was prepared by mixing with both Solution A and Solution B (1:1) in a 15 mL conical tube, then 50 μL of the substrate was added to the wells. The color was allowed to develop for 1-5 minutes, then 50 μL of the stop solution was added to each well. The absorbance was read using a SpectraMax (Molecular Devices) at 450 nm.

T2 sequence (A0A2K5UD97 entry or part of it): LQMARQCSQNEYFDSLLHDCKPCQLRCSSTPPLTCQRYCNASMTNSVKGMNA
T4 sequence (P00588 32-225, tags or fused parts left off): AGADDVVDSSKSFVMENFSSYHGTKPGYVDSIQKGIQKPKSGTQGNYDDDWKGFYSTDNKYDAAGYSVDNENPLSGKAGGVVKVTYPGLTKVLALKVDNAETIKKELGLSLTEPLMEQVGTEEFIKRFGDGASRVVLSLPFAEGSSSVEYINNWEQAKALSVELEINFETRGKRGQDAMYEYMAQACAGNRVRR

Binder	binding result (Human BCMA-Avi-His)	binding result (Cyno BCMA-Avi-His)	binding result [1]	binding result (Cyno BCMA DTA-His)	binding result [2]
B1	binds	binds	binds	–	–
B2	–	no binding (tested: antigen up to 80 nM)	–	no binding (tested: antigen up to 80 nM)	no binding
B3	binds	binds	binds	–	–
B4	binds	binds	binds	–	–
B5	binds	binds	binds	–	–
B6	binds	binds	binds	–	–
B7	–	–	binds	–	–
